Experimental data taken from US20090285799A1 (CSL, published 2009).

T1: human IL-13Rα1 on normal human dermal fibroblast (NHDF) cells (human, UniProt P78552 27-427)
T1 sequence: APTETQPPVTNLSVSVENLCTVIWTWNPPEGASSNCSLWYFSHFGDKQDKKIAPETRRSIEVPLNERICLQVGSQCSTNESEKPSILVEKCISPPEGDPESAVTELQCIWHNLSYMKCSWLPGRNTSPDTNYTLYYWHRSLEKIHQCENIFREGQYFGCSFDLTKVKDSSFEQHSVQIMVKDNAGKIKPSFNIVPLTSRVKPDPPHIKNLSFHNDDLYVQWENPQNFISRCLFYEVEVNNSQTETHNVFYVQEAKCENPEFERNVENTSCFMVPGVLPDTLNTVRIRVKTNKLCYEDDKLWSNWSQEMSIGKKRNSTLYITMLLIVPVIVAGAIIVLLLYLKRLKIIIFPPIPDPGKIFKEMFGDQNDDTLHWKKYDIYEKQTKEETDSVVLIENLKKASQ

T2: hIL-13Rα1.ECR (N-terminal FLAG-tagged fusion protein of the extracellular region of human IL-13Rα1) (human, UniProt P78552 29-343)
T2 construct: also called human IL-13Rα1.ECR; hIL-13Rα1 extracellular domain
T2 sequence: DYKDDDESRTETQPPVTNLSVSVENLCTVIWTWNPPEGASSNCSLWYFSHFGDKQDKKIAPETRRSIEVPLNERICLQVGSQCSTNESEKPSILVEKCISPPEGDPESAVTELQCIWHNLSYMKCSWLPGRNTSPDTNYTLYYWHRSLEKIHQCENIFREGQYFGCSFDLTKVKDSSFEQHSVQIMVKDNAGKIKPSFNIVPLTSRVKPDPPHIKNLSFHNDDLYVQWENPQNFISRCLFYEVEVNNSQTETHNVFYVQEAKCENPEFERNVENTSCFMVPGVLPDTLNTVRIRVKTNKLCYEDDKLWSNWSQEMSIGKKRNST


Target: T1, human IL-13Rα1 on normal human dermal …
Assay: cell-based or functional assay

Row | Binder | inhibition of eotaxin release from NHDF cells upon stimulation with IL-13 (IC50)
1 | 8B4-IgG4 (antibody, V domains shown, Recombinant full-length antibody of subclass IgG4 with kappa light chain (Lonza pCONGAMMA4/pCONKAPPA vectors), made in 293 cells) VH: EVQVLESGGGLVQPGGSLRLSCAASGFTFSNYAMTWVRQAPGKGLEWVSTISGRGYSIYYADSVKGRFTISRDNSKNTVYLQMNSLRAEDTAVYYCAKEEGHWYFDVWGRGTLVTVSS VL: EIVLTQSPDFQSVTPKEKVTITCRASQSIGSSLHWYQQKPDQSPKLLIKYASQSFSGVPSRFSGSGSGTDFTLTINSLEAEDAAAYYCHQSSSLPYTFGQGTKLEIK | ~1 µg/mL
2 | 8B4-82 (eotaxin assay) (antibody, V domains shown) VH: EVQVLESGGGLVQPGGSLRLSCAASGFTFSNYAMTWVRQAPGKGLEWVSTISGRGYSIYYADSVKGRFTISRDNSKNTVYLQMNSLRAEDTAVYYCAKEEGHWYFDVWGRGTLVTVSS VL: EIVLTQSPDFQSVTPKEKVTITCRASQSIGSSLHWYQQKPDQSPKLLIKYASQSFSGVPSRFSGSGSGTDFTLTINSLEAEDAAAYYCASSRGLPYTFGQGTKLEIK | 1.31 µg/mL
3 | 8B4-78M (optimized antibody, eotaxin assay) (antibody, V domains shown) VH: EVQVLESGGGLVQPGGSLRLSCAASGFTFSNYAMTWVRQAPGKGLEWVSTISGRGYSIYYADSVKGRFTISRDNSKNTVYLQMNSLRAEDTAVYYCAKEEGHWYFDVWGRGTLVTVSS VL: EIVLTQSPDFQSVTPKEKVTITCRASQSIGSSLHWYQQKPDQSPKLLIKYASQSFSGVPSRFSGSGSGTDFTLTINSLEAEDAAAYYCMSSMGLPYTFGQGTKLEIK | ~0.1 µg/mL
4 | 8B4-21C (eotaxin assay) (antibody, V domains shown) VH: EVQVLESGGGLVQPGGSLRLSCAASGFTFSNYAMTWVRQAPGKGLEWVSTISGRGYSIYYADSVKGRFTISRDNSKNTVYLQMNSLRAEDTAVYYCAKEEGHWYFDVWGRGTLVTVSS VL: EIVLTQSPDFQSVTPKEKVTITCRASQSIGSSLHWYQQKPDQSPKLLIKYASQSFSGVPSRFSGSGSGTDFTLTINSLEAEDAAAYYCKSSAGLPYTFGQGTKLEIK | 0.75 µg/mL

Continued, values first:

Row | inhibition of eotaxin release from NHDF cells upon stimulation with IL-13 (IC50) | Binder
5 | 0.17 µg/mL | 8B4-36 (eotaxin assay) (antibody, V domains shown) VH: EVQVLESGGGLVQPGGSLRLSCAASGFTFSNYAMTWVRQAPGKGLEWVSTISGRGYSIYYADSVKGRFTISRDNSKNTVYLQMNSLRAEDTAVYYCAKEEGHWYFDVWGRGTLVTVSS VL: EIVLTQSPDFQSVTPKEKVTITCRASQSIGSSLHWYQQKPDQSPKLLIKYASQSFSGVPSRFSGSGSGTDFTLTINSLEAEDAAAYYCVSSWGLPYTFGQGTKLEIK
6 | 0.1 µg/mL | 8B4-74C (eotaxin assay) (antibody, V domains shown) VH: EVQVLESGGGLVQPGGSLRLSCAASGFTFSNYAMTWVRQAPGKGLEWVSTISGRGYSIYYADSVKGRFTISRDNSKNTVYLQMNSLRAEDTAVYYCAKEEGHWYFDVWGRGTLVTVSS VL: EIVLTQSPDFQSVTPKEKVTITCRASQSIGSSLHWYQQKPDQSPKLLIKYASQSFSGVPSRFSGSGSGTDFTLTINSLEAEDAAAYYCMSSLGLPYTFGQGTKLEIK

Target: T2, hIL-13Rα1.ECR (N-terminal FLAG-tagged …)
Assay: KINEXA kinetic exclusion assay, full-length IgG4

Row | Kd | Binder
7 | 680 pM | 8B4-IgG4 (antibody, V domains shown, Recombinant full-length antibody of subclass IgG4 with kappa light chain (Lonza pCONGAMMA4/pCONKAPPA vectors), made in 293 cells) VH: EVQVLESGGGLVQPGGSLRLSCAASGFTFSNYAMTWVRQAPGKGLEWVSTISGRGYSIYYADSVKGRFTISRDNSKNTVYLQMNSLRAEDTAVYYCAKEEGHWYFDVWGRGTLVTVSS VL: EIVLTQSPDFQSVTPKEKVTITCRASQSIGSSLHWYQQKPDQSPKLLIKYASQSFSGVPSRFSGSGSGTDFTLTINSLEAEDAAAYYCHQSSSLPYTFGQGTKLEIK
8 | 51 pM | 8B4-18C-IgG4 (antibody, V domains shown, Full-length IgG4, kappa) VH: EVQVLESGGGLVQPGGSLRLSCAASGFTFSNYAMTWVRQAPGKGLEWVSTISGRGYSIYYADSVKGRFTISRDNSKNTVYLQMNSLRAEDTAVYYCAKEEGHWYFDVWGRGTLVTVSS VL: EIVLTQSPDFQSVTPKEKVTITCRASQSIGSSLHWYQQKPDQSPKLLIKYASQSFSGVPSRFSGSGSGTDFTLTINSLEAEDAAAYYCMNSLGLPYTFGQGTKLEIK
9 | 38 pM | 8B4-78M-IgG4 (antibody, V domains shown, Full-length IgG4, kappa) VH: EVQVLESGGGLVQPGGSLRLSCAASGFTFSNYAMTWVRQAPGKGLEWVSTISGRGYSIYYADSVKGRFTISRDNSKNTVYLQMNSLRAEDTAVYYCAKEEGHWYFDVWGRGTLVTVSS VL: EIVLTQSPDFQSVTPKEKVTITCRASQSIGSSLHWYQQKPDQSPKLLIKYASQSFSGVPSRFSGSGSGTDFTLTINSLEAEDAAAYYCMSSMGLPYTFGQGTKLEIK

Target: T2, hIL-13Rα1.ECR (N-terminal FLAG-tagged …)
Assay: BIACORE SPR, chip-bound hIL-13Rα1 extracellular domain, Fab format

Row | Binder | Kd
10 | 8B4 (Fab) (Fab, V domains shown, Fab format from vector pFab3d) VH: EVQVLESGGGLVQPGGSLRLSCAASGFTFSNYAMTWVRQAPGKGLEWVSTISGRGYSIYYADSVKGRFTISRDNSKNTVYLQMNSLRAEDTAVYYCAKEEGHWYFDVWGRGTLVTVSS VL: EIVLTQSPDFQSVTPKEKVTITCRASQSIGSSLHWYQQKPDQSPKLLIKYASQSFSGVPSRFSGSGSGTDFTLTINSLEAEDAAAYYCHQSSSLPYTFGQGTKLEIK | 2150 pM
11 | 8B4-36 (Fab) (Fab, V domains shown, Fab format; only CDR3s were mutated) VH: EVQVLESGGGLVQPGGSLRLSCAASGFTFSNYAMTWVRQAPGKGLEWVSTISGRGYSIYYADSVKGRFTISRDNSKNTVYLQMNSLRAEDTAVYYCAKEEGHWYFDVWGRGTLVTVSS VL: EIVLTQSPDFQSVTPKEKVTITCRASQSIGSSLHWYQQKPDQSPKLLIKYASQSFSGVPSRFSGSGSGTDFTLTINSLEAEDAAAYYCVSSWGLPYTFGQGTKLEIK | 85 pM
12 | 8B4-82 (Fab) (Fab, V domains shown, Fab format; only CDR3s were mutated) VH: EVQVLESGGGLVQPGGSLRLSCAASGFTFSNYAMTWVRQAPGKGLEWVSTISGRGYSIYYADSVKGRFTISRDNSKNTVYLQMNSLRAEDTAVYYCAKEEGHWYFDVWGRGTLVTVSS VL: EIVLTQSPDFQSVTPKEKVTITCRASQSIGSSLHWYQQKPDQSPKLLIKYASQSFSGVPSRFSGSGSGTDFTLTINSLEAEDAAAYYCASSRGLPYTFGQGTKLEIK | 73 pM
13 | 8B4-80C (Fab) (Fab, V domains shown, Fab format; only CDR3s were mutated) VH: EVQVLESGGGLVQPGGSLRLSCAASGFTFSNYAMTWVRQAPGKGLEWVSTISGRGYSIYYADSVKGRFTISRDNSKNTVYLQMNSLRAEDTAVYYCAKEEGHWYFDVWGRGTLVTVSS VL: EIVLTQSPDFQSVTPKEKVTITCRASQSIGSSLHWYQQKPDQSPKLLIKYASQSFSGVPSRFSGSGSGTDFTLTINSLEAEDAAAYYCMSSWGLPYTFGQGTKLEIK | 250 pM

More lines, now with the values ahead:

Row | Kd | Binder
14 | 49 pM | 8B4-78M (Fab) (Fab, V domains shown, Fab format; only CDR3s were mutated) VH: EVQVLESGGGLVQPGGSLRLSCAASGFTFSNYAMTWVRQAPGKGLEWVSTISGRGYSIYYADSVKGRFTISRDNSKNTVYLQMNSLRAEDTAVYYCAKEEGHWYFDVWGRGTLVTVSS VL: EIVLTQSPDFQSVTPKEKVTITCRASQSIGSSLHWYQQKPDQSPKLLIKYASQSFSGVPSRFSGSGSGTDFTLTINSLEAEDAAAYYCMSSMGLPYTFGQGTKLEIK
15 | 170 pM | 8B4-21C (Fab) (Fab, V domains shown, Fab format; only CDR3s were mutated) VH: EVQVLESGGGLVQPGGSLRLSCAASGFTFSNYAMTWVRQAPGKGLEWVSTISGRGYSIYYADSVKGRFTISRDNSKNTVYLQMNSLRAEDTAVYYCAKEEGHWYFDVWGRGTLVTVSS VL: EIVLTQSPDFQSVTPKEKVTITCRASQSIGSSLHWYQQKPDQSPKLLIKYASQSFSGVPSRFSGSGSGTDFTLTINSLEAEDAAAYYCKSSAGLPYTFGQGTKLEIK
16 | 85 pM | 8B4-18C (Fab) (Fab, V domains shown, Fab format; only CDR3s were mutated) VH: EVQVLESGGGLVQPGGSLRLSCAASGFTFSNYAMTWVRQAPGKGLEWVSTISGRGYSIYYADSVKGRFTISRDNSKNTVYLQMNSLRAEDTAVYYCAKEEGHWYFDVWGRGTLVTVSS VL: EIVLTQSPDFQSVTPKEKVTITCRASQSIGSSLHWYQQKPDQSPKLLIKYASQSFSGVPSRFSGSGSGTDFTLTINSLEAEDAAAYYCMNSLGLPYTFGQGTKLEIK
17 | 45 pM | 8B4-74C (Fab) (Fab, V domains shown, Fab format; only CDR3s were mutated) VH: EVQVLESGGGLVQPGGSLRLSCAASGFTFSNYAMTWVRQAPGKGLEWVSTISGRGYSIYYADSVKGRFTISRDNSKNTVYLQMNSLRAEDTAVYYCAKEEGHWYFDVWGRGTLVTVSS VL: EIVLTQSPDFQSVTPKEKVTITCRASQSIGSSLHWYQQKPDQSPKLLIKYASQSFSGVPSRFSGSGSGTDFTLTINSLEAEDAAAYYCMSSLGLPYTFGQGTKLEIK
